# Source: publication PMC6994669 (Nature Communications, 2020)
# T1: mouse CASK N-terminal kinase domain (residues 1–323) fused with the N-terminal His6-tag (mouse, UniProt O70589 1-323)
# T1 construct: mouse CASK (calcium/calmodulin-dependent serine kinase), N-terminal kinase domain, residues 1-323; Cloned into pET21a, the same vector as the C-terminally tagged PTPδ D2-His6, yet the methods call this tag N-terminal; also called His6-CASK; N-terminal kinase domain of CASK; not shown: His6, N-terminal, kept
# T1 sequence (looked up): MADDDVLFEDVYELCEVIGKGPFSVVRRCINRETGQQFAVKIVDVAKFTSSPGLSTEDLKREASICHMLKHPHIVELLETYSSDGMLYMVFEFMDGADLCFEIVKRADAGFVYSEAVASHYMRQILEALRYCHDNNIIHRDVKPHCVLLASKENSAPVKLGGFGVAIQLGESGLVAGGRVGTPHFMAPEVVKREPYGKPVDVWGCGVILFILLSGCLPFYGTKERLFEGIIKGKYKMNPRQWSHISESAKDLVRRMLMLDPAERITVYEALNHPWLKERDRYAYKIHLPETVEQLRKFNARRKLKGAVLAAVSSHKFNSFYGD
# B1: mouse Liprin-α3 tSAM (residues 808–1114) (domain or fragment)
# chain: not shown
# notes: mouse Liprin-α3, tandem SAM domain (αN, SAM1-SAM3), residues 808-1114; also called WT; source: E. coli Rosetta (DE3), purified (Glutathione Sepharose, Resource Q, GST cleaved off by HRV3c protease, Superdex 200); not shown: GST, N-terminal, cleaved
# Legend:
# [1] = biological target: T1, mouse CASK N-terminal kinase domain …; assay: pull-down; GST pull-down (Fig. 5c): Liprin-α3 tSAM and/or His6-CASK mixed with GST-PTPδ D2 at equimolar ratio (20 µM) in PBS with 0.1% Triton X-100, then immobilised on Glutathione Sepharose FF; eluted with glutathione; SDS-PAGE, Coomassie; details: both partners purified
# [2] = biological target: B1; assay: SPR; Biacore T200, 25 °C, 10 mM Hepes-NaOH pH 7.5, 150 mM NaCl, 0.005% Tween-20; wild-type or mutant PTPδ D2-His6 amine-coupled on a CM5 chip; wild-type or mutant Liprin-α3 tSAM injected, twofold dilutions from 40 µM to 39 nM; equilibrium KD; details: both partners purified
binding result [1],Kd [2],Binder
binds,,B1
,32 µM,PTPδ D2-His6 F1399A (domain or fragment) NTEVPARNLYAYIQKLTQIETGENVTGMELEFKRLASSKAHTSRFISANLPCNKFKNRLVNIMPYESTRVCLQPIRGVEGSDYINASFLDGYRQQKAYIATQGPLAETTEDFWRMLWEHNSTIVVMLTKLREMGREKCHQYWPAERSARYQYFVVDPMAEYNMPQYILREFKVTDARDGQSRTVRQAQFTDWPEQGVPKSGEGFIDFIGQVHKTKEQFGQDGPISVHCSAGVGRTGVFITLSIVLERMRYEGVVDIFQTVKMLRTQRPAMVQTEDQYQFCYRAALEYLGSFDHYAT
,11.4 µM,PTPδ D2-His6 Y1506A (domain or fragment) NTEVPARNLYAYIQKLTQIETGENVTGMELEFKRLASSKAHTSRFISANLPCNKFKNRLVNIMPYESTRVCLQPIRGVEGSDYINASFLDGYRQQKAYIATQGPLAETTEDFWRMLWEHNSTIVVMLTKLREMGREKCHQYWPAERSARYQYFVVDPMAEYNMPQYILREFKVTDARDGQSRTVRQFQFTDWPEQGVPKSGEGFIDFIGQVHKTKEQFGQDGPISVHCSAGVGRTGVFITLSIVLERMRYEGVVDIFQTVKMLRTQRPAMVQTEDQYQFCYRAALEYLGSFDHAAT
,> 40 µM,PTPδ D2-His6 L1380A (domain or fragment) NTEVPARNLYAYIQKLTQIETGENVTGMELEFKRLASSKAHTSRFISANLPCNKFKNRLVNIMPYESTRVCLQPIRGVEGSDYINASFLDGYRQQKAYIATQGPLAETTEDFWRMLWEHNSTIVVMLTKLREMGREKCHQYWPAERSARYQYFVVDPMAEYNMPQYIAREFKVTDARDGQSRTVRQFQFTDWPEQGVPKSGEGFIDFIGQVHKTKEQFGQDGPISVHCSAGVGRTGVFITLSIVLERMRYEGVVDIFQTVKMLRTQRPAMVQTEDQYQFCYRAALEYLGSFDHYAT
,18 µM,PTPδ D2-His6 D1504A (domain or fragment) NTEVPARNLYAYIQKLTQIETGENVTGMELEFKRLASSKAHTSRFISANLPCNKFKNRLVNIMPYESTRVCLQPIRGVEGSDYINASFLDGYRQQKAYIATQGPLAETTEDFWRMLWEHNSTIVVMLTKLREMGREKCHQYWPAERSARYQYFVVDPMAEYNMPQYILREFKVTDARDGQSRTVRQFQFTDWPEQGVPKSGEGFIDFIGQVHKTKEQFGQDGPISVHCSAGVGRTGVFITLSIVLERMRYEGVVDIFQTVKMLRTQRPAMVQTEDQYQFCYRAALEYLGSFAHYAT
